Assay [1] addresses C-intein of Npu DnaE fused to 3' ABCA4 (set 1, from Cys1150), 3xflag (product of pzac-CMV260-3' ABCA4 intein) (Nostoc punctiforme; human) (UniProt P78363). Nature of the assay: cell-based or functional assay.
Assay [2] has as its target C-intein of DnaE from Nostoc punctiforme fused to the C-terminal half of EGFP, 3xflag (product of pAAV2.1-CMV-3' EGFP intein) (Nostoc punctiforme). The assay is described as follows: cell-based or functional assay.

As to “5' ABCA4 (set 1, split at Cys1150) fused to the N-intein of Npu DnaE, 3xflag (product of pzac-CMV260-5' ABCA4 intein) (from UniProt P78363 1-1150)”, in assay [1], the Full-length ABCA4 by Western blot band intensity, relative to the single AAV plasmid (HEK293, set 1) is 61%.

Consider “N-terminal half of EGFP fused to the N-intein of DnaE from Nostoc punctiforme, 3xflag (product of pAAV2.1-CMV-5' EGFP intein)”, for which, in assay [2], the EGFP protein amount by Western blot band intensity, relative to a single AAV plasmid amounted to 76%.
